{"source": "patent US20200270321A1", "key": {"[1]": {"target": "mouse 4-1BB on activated mouse splenocytes (mouse) (UniProt P20334)", "sequence (P20334 24-256)": "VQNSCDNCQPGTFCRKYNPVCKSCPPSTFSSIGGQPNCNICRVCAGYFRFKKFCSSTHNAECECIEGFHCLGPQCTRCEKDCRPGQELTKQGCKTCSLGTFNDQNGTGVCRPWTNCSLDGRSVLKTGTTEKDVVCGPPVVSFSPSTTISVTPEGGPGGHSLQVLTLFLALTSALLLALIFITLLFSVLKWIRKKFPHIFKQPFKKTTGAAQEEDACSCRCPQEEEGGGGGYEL", "assay": "flow cytometry on activated mouse splenocytes, gate CD8+ T cells; PE anti-human IgG Fc-gamma F(ab')2; median fluorescence, baseline corrected"}, "[2]": {"target": "mouse 4-1BB on activated mouse splenocytes (mouse) (UniProt P20334)", "assay": "flow cytometry on activated mouse splenocytes, gate CD4+ T cells; PE anti-human IgG Fc-gamma F(ab')2; median fluorescence, baseline corrected"}}}
{"substance": "anti-mouse Lob12.3 huIgG1 (antibody)", "values": [{"measurement": "EC50 (read off the curve)", "setting": "[1]", "value": 0.1, "unit": "nM"}, {"measurement": "EC50 (read off the curve)", "setting": "[2]", "value": 0.09, "unit": "nM"}]}
